Laboratory results reported in patent US10766960 (dated 2020).

T1: FcgRIIa H (human, UniProt P12318)
T1 chain: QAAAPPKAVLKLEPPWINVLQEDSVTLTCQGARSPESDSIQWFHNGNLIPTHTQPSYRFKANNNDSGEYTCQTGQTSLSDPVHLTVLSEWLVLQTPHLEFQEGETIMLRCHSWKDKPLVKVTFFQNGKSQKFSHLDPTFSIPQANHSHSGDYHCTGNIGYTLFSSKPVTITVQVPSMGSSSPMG

T2: FcgRIIb (human, UniProt P31994)
T2 chain: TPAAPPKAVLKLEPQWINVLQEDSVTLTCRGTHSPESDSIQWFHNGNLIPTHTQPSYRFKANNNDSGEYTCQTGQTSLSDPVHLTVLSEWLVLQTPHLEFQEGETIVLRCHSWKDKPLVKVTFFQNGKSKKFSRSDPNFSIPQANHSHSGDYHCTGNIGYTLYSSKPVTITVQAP

T3: FcgRIIa R (human, UniProt P12318)
T3 chain: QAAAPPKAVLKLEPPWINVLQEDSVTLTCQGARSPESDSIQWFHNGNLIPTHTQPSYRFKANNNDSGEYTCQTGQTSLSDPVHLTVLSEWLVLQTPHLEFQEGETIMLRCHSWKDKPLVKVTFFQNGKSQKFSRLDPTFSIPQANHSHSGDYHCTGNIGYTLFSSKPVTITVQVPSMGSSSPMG

T4: FcgRIa (human, UniProt P12314)
T4 chain: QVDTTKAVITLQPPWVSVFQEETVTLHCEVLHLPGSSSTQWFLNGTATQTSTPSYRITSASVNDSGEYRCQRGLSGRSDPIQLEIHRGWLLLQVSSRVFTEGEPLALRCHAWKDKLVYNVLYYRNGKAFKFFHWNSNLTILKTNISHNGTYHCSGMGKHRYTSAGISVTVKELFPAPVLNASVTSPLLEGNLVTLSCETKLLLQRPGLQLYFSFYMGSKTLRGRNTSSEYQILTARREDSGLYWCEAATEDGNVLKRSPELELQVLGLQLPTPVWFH


How the values were obtained:
Assay in all cases: SPR
[1] = target: FcgRIIIa V (human, UniProt P08637)
[2] = target: FcgRIIIa F (human, UniProt P08637)
[3] = target: T1, FcgRIIa H
[4] = target: T2, FcgRIIb
[5] = target: T3, FcgRIIa R
[6] = target: T4, FcgRIa

Sequence of FcgRIIIa V (P08637 17-208 F176V): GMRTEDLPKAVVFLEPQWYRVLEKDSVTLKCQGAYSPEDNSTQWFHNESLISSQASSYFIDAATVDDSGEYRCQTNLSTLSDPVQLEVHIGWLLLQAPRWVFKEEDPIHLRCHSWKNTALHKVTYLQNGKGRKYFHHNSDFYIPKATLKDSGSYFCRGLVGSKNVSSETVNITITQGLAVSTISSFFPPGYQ
Sequence of FcgRIIIa F (P08637 17-208): as the sequence (P08637 17-208 F176V) above, with V160F counted along it

Binder	Kd [1] [nM]	Kd [2] [nM]	Kd [3] [nM]	Kd [4] [nM]	Kd [5] [nM]	Kd [6] [nM]
H240-Kn234/H240-Hl068/L73-k0 (antibody) chain 1: QDQLVQSGAEVKKPGASVKVSCKASGFNIKDTYIQWVRQAPGQGLEWMGRIDPLRKQTKYREKFEGRVTITADTSTNTAYMELSSLRSEDTAVYYCVRSGREFDYWGQGTLVTVSSASTKGPSVFPLAPSSKSTSGGTAALGCLVKDYFPEPVTVSWNSGALTSGVHTFPAVLQSSGLYSLSSVVTVPSSSLGTQTYICNVNHKPSNTKVDKKVEPKSCDKTHTCPPCPAPEDYWGPIVFLFPPKPKDTLMISRTPEVTCVVVDVSDEDPEVKFNWYVDGVEVHNAKTKPREEQYNATYRVVSVLTVLHQDWLNGKEYKCKVSNKDLPAPIEKTISKAKGQPREPQVCTLPPSRDELTKNQVSLWCLVKGFYPSDIAVEWESNGQPENNYKTTPPVLDSDGSFFLYSKLTVDKSRWQQGNVFSCSVMHEALHNHYTQKSLSLSP chain 2: QDQLVQSGAEVKKPGASVKVSCKASGFNIKDTYIQWVRQAPGQGLEWMGRIDPLRKQTKYREKFEGRVTITADTSTNTAYMELSSLRSEDTAVYYCVRSGREFDYWGQGTLVTVSSASTKGPSVFPLAPSSKSTSGGTAALGCLVKDYFPEPVTVSWNSGALTSGVHTFPAVLQSSGLYSLSSVVTVPSSSLGTQTYICNVNHKPSNTKVDKKVEPKSCDKTHTCPPCPAPELLGGPSVFLFPPKPKDTLMISRTPEVTCVVVDVSHEEPEVKFNWYVDGVEVHNAKTKPREEQYNSTYRVVSVLTVLHQDWLNGKEYKCKVSNDALPKPIEETISKAKGQPREPQVYTLPPSRCELTKNQVSLSCAVKGFYPSDIAVEWESNGQPENNYKTTPPVLDSDGSFFLVSKLTVDKSRWQQGNVFSCSVMHEALHNHYTQKSLSLSP chain 3: DIQMTQSPSSLSASVGDRVTITCRASQDIHKYIAWYQQKPGQAPRLLIQYTSTLQPGVPSRFSGSGSGTDYTFTISSLQPEDIATYYCLQYEQLRTFGGGTKVEIKRTVAAPSVFIFPPSDEQLKSGTASVVCLLNNFYPREAKVQWKVDNALQSGNSQESVTEQDSKDSTYSLSSTLTLSKADYEKHKVYACEVTHQGLSSPVTKSFNRGEC	0.68	2.3	65	140	21	0.19
H240-Kn202/H240-Hl214/L73-k0 (antibody) chain 1: QDQLVQSGAEVKKPGASVKVSCKASGFNIKDTYIQWVRQAPGQGLEWMGRIDPLRKQTKYREKFEGRVTITADTSTNTAYMELSSLRSEDTAVYYCVRSGREFDYWGQGTLVTVSSASTKGPSVFPLAPSSKSTSGGTAALGCLVKDYFPEPVTVSWNSGALTSGVHTFPAVLQSSGLYSLSSVVTVPSSSLGTQTYICNVNHKPSNTKVDKKVEPKSCDKTHTCPPCPAPEEQWGPMVFLFPPKPKDTLMISRTPEVTCVVVDVSDEEPEVKFNWYVDGVEVHNAKTKPREEQYNATYRVVSVLTVLHQDWLNGKEYKCKVSNKALPAPIEKTISKAKGQPREPQVCTLPPSRDELTKNQVSLWCLVKGFYPSDIAVEWESNGQPENNYKTTPPVLDSDGSFFLYSKLTVDKSRWQQGNVFSCSVMHEALHNHYTQKSLSLSP chain 2: QDQLVQSGAEVKKPGASVKVSCKASGFNIKDTYIQWVRQAPGQGLEWMGRIDPLRKQTKYREKFEGRVTITADTSTNTAYMELSSLRSEDTAVYYCVRSGREFDYWGQGTLVTVSSASTKGPSVFPLAPSSKSTSGGTAALGCLVKDYFPEPVTVSWNSGALTSGVHTFPAVLQSSGLYSLSSVVTVPSSSLGTQTYICNVNHKPSNTKVDKKVEPKSCDKTHTCPPCPAPELLGGPSVFLFPPKPKDTLMISRTPEVTCVVVDVSHEEPEVKFNWYVDGVEVHNAKTKPREEQYNSTYRVVSVLTVLHQDWLNGKEYKCKVSNDALPFPIEETISKAKGQPREPQVYTLPPSRCELTKNQVSLSCAVKGFYPSDIAVEWESNGQPENNYKTTPPVLDSDGSFFLVSKLTVDKSRWQQGNVFSCSVMHEALHNHYTQKSLSLSP chain 3: DIQMTQSPSSLSASVGDRVTITCRASQDIHKYIAWYQQKPGQAPRLLIQYTSTLQPGVPSRFSGSGSGTDYTFTISSLQPEDIATYYCLQYEQLRTFGGGTKVEIKRTVAAPSVFIFPPSDEQLKSGTASVVCLLNNFYPREAKVQWKVDNALQSGNSQESVTEQDSKDSTYSLSSTLTLSKADYEKHKVYACEVTHQGLSSPVTKSFNRGEC	0.95	2.6	440	6100	830	0.09
H240-Kn227/H240-Hl214/L73-k0 (antibody) chain 1: QDQLVQSGAEVKKPGASVKVSCKASGFNIKDTYIQWVRQAPGQGLEWMGRIDPLRKQTKYREKFEGRVTITADTSTNTAYMELSSLRSEDTAVYYCVRSGREFDYWGQGTLVTVSSASTKGPSVFPLAPSSKSTSGGTAALGCLVKDYFPEPVTVSWNSGALTSGVHTFPAVLQSSGLYSLSSVVTVPSSSLGTQTYICNVNHKPSNTKVDKKVEPKSCDKTHTCPPCPAPEEQWGPIVFLFPPKPKDTLMISRTPEVTCVVVDVSDEEPEVKFNWYVDGVEVHNAKTKPREEQYNATYRVVSVLTVLHQDWLNGKEYKCKVSNKALPAPIEKTISKAKGQPREPQVCTLPPSRDELTKNQVSLWCLVKGFYPSDIAVEWESNGQPENNYKTTPPVLDSDGSFFLYSKLTVDKSRWQQGNVFSCSVMHEALHNHYTQKSLSLSP chain 2: QDQLVQSGAEVKKPGASVKVSCKASGFNIKDTYIQWVRQAPGQGLEWMGRIDPLRKQTKYREKFEGRVTITADTSTNTAYMELSSLRSEDTAVYYCVRSGREFDYWGQGTLVTVSSASTKGPSVFPLAPSSKSTSGGTAALGCLVKDYFPEPVTVSWNSGALTSGVHTFPAVLQSSGLYSLSSVVTVPSSSLGTQTYICNVNHKPSNTKVDKKVEPKSCDKTHTCPPCPAPELLGGPSVFLFPPKPKDTLMISRTPEVTCVVVDVSHEEPEVKFNWYVDGVEVHNAKTKPREEQYNSTYRVVSVLTVLHQDWLNGKEYKCKVSNDALPFPIEETISKAKGQPREPQVYTLPPSRCELTKNQVSLSCAVKGFYPSDIAVEWESNGQPENNYKTTPPVLDSDGSFFLVSKLTVDKSRWQQGNVFSCSVMHEALHNHYTQKSLSLSP chain 3: DIQMTQSPSSLSASVGDRVTITCRASQDIHKYIAWYQQKPGQAPRLLIQYTSTLQPGVPSRFSGSGSGTDYTFTISSLQPEDIATYYCLQYEQLRTFGGGTKVEIKRTVAAPSVFIFPPSDEQLKSGTASVVCLLNNFYPREAKVQWKVDNALQSGNSQESVTEQDSKDSTYSLSSTLTLSKADYEKHKVYACEVTHQGLSSPVTKSFNRGEC	0.8	1.8	290	2800	370	0.13
H240-Kn198/H240-Hl068/L73-k0 (antibody) chain 1: QDQLVQSGAEVKKPGASVKVSCKASGFNIKDTYIQWVRQAPGQGLEWMGRIDPLRKQTKYREKFEGRVTITADTSTNTAYMELSSLRSEDTAVYYCVRSGREFDYWGQGTLVTVSSASTKGPSVFPLAPSSKSTSGGTAALGCLVKDYFPEPVTVSWNSGALTSGVHTFPAVLQSSGLYSLSSVVTVPSSSLGTQTYICNVNHKPSNTKVDKKVEPKSCDKTHTCPPCPAPELQWGPMVFLFPPKPKDTLMISRTPEVTCVVVDVSDEEPEVKFNWYVDGVEVHNAKTKPREEQYNATYRVVSVLTVLHQDWLNGKEYKCKVSNKALPAPIEKTISKAKGQPREPQVCTLPPSRDELTKNQVSLWCLVKGFYPSDIAVEWESNGQPENNYKTTPPVLDSDGSFFLYSKLTVDKSRWQQGNVFSCSVMHEALHNHYTQKSLSLSP chain 2: QDQLVQSGAEVKKPGASVKVSCKASGFNIKDTYIQWVRQAPGQGLEWMGRIDPLRKQTKYREKFEGRVTITADTSTNTAYMELSSLRSEDTAVYYCVRSGREFDYWGQGTLVTVSSASTKGPSVFPLAPSSKSTSGGTAALGCLVKDYFPEPVTVSWNSGALTSGVHTFPAVLQSSGLYSLSSVVTVPSSSLGTQTYICNVNHKPSNTKVDKKVEPKSCDKTHTCPPCPAPELLGGPSVFLFPPKPKDTLMISRTPEVTCVVVDVSHEEPEVKFNWYVDGVEVHNAKTKPREEQYNSTYRVVSVLTVLHQDWLNGKEYKCKVSNDALPKPIEETISKAKGQPREPQVYTLPPSRCELTKNQVSLSCAVKGFYPSDIAVEWESNGQPENNYKTTPPVLDSDGSFFLVSKLTVDKSRWQQGNVFSCSVMHEALHNHYTQKSLSLSP chain 3: DIQMTQSPSSLSASVGDRVTITCRASQDIHKYIAWYQQKPGQAPRLLIQYTSTLQPGVPSRFSGSGSGTDYTFTISSLQPEDIATYYCLQYEQLRTFGGGTKVEIKRTVAAPSVFIFPPSDEQLKSGTASVVCLLNNFYPREAKVQWKVDNALQSGNSQESVTEQDSKDSTYSLSSTLTLSKADYEKHKVYACEVTHQGLSSPVTKSFNRGEC	0.85	3.7	49	1600	240	0.24
